Measured values from patent publication US20170362301A1 (Janssen / Centocor, published 2017).
“And” between values parts separate entries of the source, which are not always exact repeats. Equal values may be shown once.

Legend:
[1] = target: T1, EGFR (form in the assay not stated) (human, UniProt P00533 25-645, limits assumed); assay: ELISA, NEM conjugate 10 nM
[2] = target: T1, EGFR (form in the assay not stated); assay: ELISA, NEM conjugate 100 nM
[3] = target: T1, EGFR (form in the assay not stated); assay: ELISA, NEM conjugate 500 nM
[4] = target: EGFR on cells (A431, NCI-H292, NCI-H322, NCI-H441) (human, UniProt P00533 25-1210); assay: cell-based or functional assay

Binder	binding ratio vs parent P54AR4-83v2 [1]	binding ratio vs parent P54AR4-83v2 [2]	binding ratio vs parent P54AR4-83v2 [3]	IC50 A431 (nM), cell viability [4]	IC50 H1537 (nM), cell viability [4]
P54AR4-83v2 S30C, NEM conjugate (designed binder, NEM on Cys 30, His-tagged) LPAPKNLVVSEVTEDSARLSWDDPWAFYECFLIQYQESEKVGEAIVLTVPGSERSYDLTGLKPGTEYTVSIYGVHNVYKDTNMRGLPLSAIFTT	0.9 ratio	1.02 ratio	0.9 ratio	–	–
P54AR4-83v2 S55C, NEM conjugate (designed binder, NEM on Cys 55, His-tagged) LPAPKNLVVSEVTEDSARLSWDDPWAFYESFLIQYQESEKVGEAIVLTVPGSERCYDLTGLKPGTEYTVSIYGVHNVYKDTNMRGLPLSAIFTT	0 ratio	0 ratio	0.11 ratio	–	–
P54AR4-83v2 S70C, NEM conjugate (designed binder, NEM on Cys 70, His-tagged) LPAPKNLVVSEVTEDSARLSWDDPWAFYESFLIQYQESEKVGEAIVLTVPGSERSYDLTGLKPGTEYTVCIYGVHNVYKDTNMRGLPLSAIFTT	0.86 ratio	1.01 ratio	0.93 ratio	–	–
P54AR4-83v2 S89C, NEM conjugate (designed binder, NEM on Cys 89, His-tagged) LPAPKNLVVSEVTEDSARLSWDDPWAFYESFLIQYQESEKVGEAIVLTVPGSERSYDLTGLKPGTEYTVSIYGVHNVYKDTNMRGLPLCAIFTT	0.97 ratio	1.02 ratio	1.04 ratio	–	–
P54AR4-83v2 T13C, NEM conjugate (designed binder, NEM on Cys 13, His-tagged) LPAPKNLVVSEVCEDSARLSWDDPWAFYESFLIQYQESEKVGEAIVLTVPGSERSYDLTGLKPGTEYTVSIYGVHNVYKDTNMRGLPLSAIFTT	0.87 ratio	1.04 ratio	0.9 ratio	–	–
P54AR4-83v2 W25C, NEM conjugate (designed binder, NEM on Cys 25, His-tagged) LPAPKNLVVSEVTEDSARLSWDDPCAFYESFLIQYQESEKVGEAIVLTVPGSERSYDLTGLKPGTEYTVSIYGVHNVYKDTNMRGLPLSAIFTT	0.38 ratio	0.64 ratio	0.7 ratio	–	–
P54AR4-83v2 T93C, NEM conjugate (designed binder, NEM on Cys 93, His-tagged) LPAPKNLVVSEVTEDSARLSWDDPWAFYESFLIQYQESEKVGEAIVLTVPGSERSYDLTGLKPGTEYTVSIYGVHNVYKDTNMRGLPLSAIFCT	0.96 ratio	1.05 ratio	1.04 ratio	–	–
P54AR4-83v2 S38C, NEM conjugate (designed binder, NEM on Cys 38, His-tagged) LPAPKNLVVSEVTEDSARLSWDDPWAFYESFLIQYQECEKVGEAIVLTVPGSERSYDLTGLKPGTEYTVSIYGVHNVYKDTNMRGLPLSAIFTT	0.8 ratio	0.93 ratio	0.82 ratio	–	–
P54AR4-83v2 T68C, NEM conjugate (designed binder, NEM on Cys 68, His-tagged) LPAPKNLVVSEVTEDSARLSWDDPWAFYESFLIQYQESEKVGEAIVLTVPGSERSYDLTGLKPGTEYCVSIYGVHNVYKDTNMRGLPLSAIFTT	0.83 ratio	1.04 ratio	0.95 ratio	–	–
P54AR4-83v2 Y78C, NEM conjugate (designed binder, NEM on Cys 78, His-tagged) LPAPKNLVVSEVTEDSARLSWDDPWAFYESFLIQYQESEKVGEAIVLTVPGSERSYDLTGLKPGTEYTVSIYGVHNVCKDTNMRGLPLSAIFTT	0.31 ratio	0.63 ratio	0.68 ratio	–	–
P54AR4-83v2 V8C, NEM conjugate (designed binder, NEM on Cys 8, His-tagged) LPAPKNLCVSEVTEDSARLSWDDPWAFYESFLIQYQESEKVGEAIVLTVPGSERSYDLTGLKPGTEYTVSIYGVHNVYKDTNMRGLPLSAIFTT	0.96 ratio	1.03 ratio	0.9 ratio	–	–
P54AR4-83v2 V74C, NEM conjugate (designed binder, NEM on Cys 74, His-tagged) LPAPKNLVVSEVTEDSARLSWDDPWAFYESFLIQYQESEKVGEAIVLTVPGSERSYDLTGLKPGTEYTVSIYGCHNVYKDTNMRGLPLSAIFTT	0.76 ratio	1.01 ratio	0.95 ratio	–	–
P54AR4-83v2 T59C, NEM conjugate (designed binder, NEM on Cys 59, His-tagged) LPAPKNLVVSEVTEDSARLSWDDPWAFYESFLIQYQESEKVGEAIVLTVPGSERSYDLCGLKPGTEYTVSIYGVHNVYKDTNMRGLPLSAIFTT	0.83 ratio	1.04 ratio	0.93 ratio	–	–
P54AR4-83v2 V77C, NEM conjugate (designed binder, NEM on Cys 77, His-tagged) LPAPKNLVVSEVTEDSARLSWDDPWAFYESFLIQYQESEKVGEAIVLTVPGSERSYDLTGLKPGTEYTVSIYGVHNCYKDTNMRGLPLSAIFTT	0.03 ratio	0 ratio	0.03 ratio	–	–
P54AR4-83v2 V46C, NEM conjugate (designed binder, NEM on Cys 46, His-tagged) LPAPKNLVVSEVTEDSARLSWDDPWAFYESFLIQYQESEKVGEAICLTVPGSERSYDLTGLKPGTEYTVSIYGVHNVYKDTNMRGLPLSAIFTT	0.61 ratio	1.01 ratio	0.9 ratio	–	–
P54AR4-83v2 V41C, NEM conjugate (designed binder, NEM on Cys 41, His-tagged) LPAPKNLVVSEVTEDSARLSWDDPWAFYESFLIQYQESEKCGEAIVLTVPGSERSYDLTGLKPGTEYTVSIYGVHNVYKDTNMRGLPLSAIFTT	0.92 ratio	0.99 ratio	0.95 ratio	–	–
P54AR4-83v2 V9C, NEM conjugate (designed binder, NEM on Cys 9, His-tagged) LPAPKNLVCSEVTEDSARLSWDDPWAFYESFLIQYQESEKVGEAIVLTVPGSERSYDLTGLKPGTEYTVSIYGVHNVYKDTNMRGLPLSAIFTT	0.94 ratio	1.03 ratio	0.93 ratio	–	–
P54AR4-83v2 Y72C, NEM conjugate (designed binder, NEM on Cys 72, His-tagged) LPAPKNLVVSEVTEDSARLSWDDPWAFYESFLIQYQESEKVGEAIVLTVPGSERSYDLTGLKPGTEYTVSICGVHNVYKDTNMRGLPLSAIFTT	0.93 ratio	1 ratio	0.93 ratio	–	–
P54AR4-83v2 Y28C, NEM conjugate (designed binder, NEM on Cys 28, His-tagged) LPAPKNLVVSEVTEDSARLSWDDPWAFCESFLIQYQESEKVGEAIVLTVPGSERSYDLTGLKPGTEYTVSIYGVHNVYKDTNMRGLPLSAIFTT	0 ratio	0.01 ratio	0.09 ratio	–	–
P54AR4-83v2 V12C, NEM conjugate (designed binder, NEM on Cys 12, His-tagged) LPAPKNLVVSECTEDSARLSWDDPWAFYESFLIQYQESEKVGEAIVLTVPGSERSYDLTGLKPGTEYTVSIYGVHNVYKDTNMRGLPLSAIFTT	0.87 ratio	1.06 ratio	0.93 ratio	–	–
P54AR4-83v2 T48C, NEM conjugate (designed binder, NEM on Cys 48, His-tagged) LPAPKNLVVSEVTEDSARLSWDDPWAFYESFLIQYQESEKVGEAIVLCVPGSERSYDLTGLKPGTEYTVSIYGVHNVYKDTNMRGLPLSAIFTT	0.88 ratio	1 ratio	0.93 ratio	–	–
P54AR4-83v2 T81C, NEM conjugate (designed binder, NEM on Cys 81, His-tagged) LPAPKNLVVSEVTEDSARLSWDDPWAFYESFLIQYQESEKVGEAIVLTVPGSERSYDLTGLKPGTEYTVSIYGVHNVYKDCNMRGLPLSAIFTT	0.5 ratio	0.9 ratio	1.02 ratio	–	–
P54AR4-83v2 V49C, NEM conjugate (designed binder, NEM on Cys 49, His-tagged) LPAPKNLVVSEVTEDSARLSWDDPWAFYESFLIQYQESEKVGEAIVLTCPGSERSYDLTGLKPGTEYTVSIYGVHNVYKDTNMRGLPLSAIFTT	0.96 ratio	1.01 ratio	0.98 ratio	–	–
P54AR4-83v2 S52C, NEM conjugate (designed binder, NEM on Cys 52, His-tagged) LPAPKNLVVSEVTEDSARLSWDDPWAFYESFLIQYQESEKVGEAIVLTVPGCERSYDLTGLKPGTEYTVSIYGVHNVYKDTNMRGLPLSAIFTT	0.78 ratio	1.03 ratio	0.93 ratio	–	–
83v2cy5-mal-PEG4-MMAE (designed binder, mal-PEG4-MMAE on the cysteine) MLPAPKNLVVSEVTEDSARLSWDDPWAFYESFLIQYQESEKVGEAIVLTVPGSERSYDLTGLKPGTEYTVSIYGVHNVYKDTNMRGLPLSAIFTTGGHHHHHHC	–	–	–	> 500 nM	–
83v2cy5-mal-PEG4-VK-MMAE (designed binder, mal-PEG4-VK-MMAE on the cysteine) MLPAPKNLVVSEVTEDSARLSWDDPWAFYESFLIQYQESEKVGEAIVLTVPGSERSYDLTGLKPGTEYTVSIYGVHNVYKDTNMRGLPLSAIFTTGGHHHHHHC	–	–	–	19.6 nM	–
83v2cy5-mal-PEG4-MMAF (designed binder, mal-PEG4-MMAF on the cysteine) MLPAPKNLVVSEVTEDSARLSWDDPWAFYESFLIQYQESEKVGEAIVLTVPGSERSYDLTGLKPGTEYTVSIYGVHNVYKDTNMRGLPLSAIFTTGGHHHHHHC	–	–	–	> 1000 nM	–
83v2cy5-mal-PEG4-VC-MMAE (designed binder, mal-PEG4-VC-MMAE on the cysteine) MLPAPKNLVVSEVTEDSARLSWDDPWAFYESFLIQYQESEKVGEAIVLTVPGSERSYDLTGLKPGTEYTVSIYGVHNVYKDTNMRGLPLSAIFTTGGHHHHHHC	–	–	–	315 nM	–
83v2cy5-mal-PEG4-VC-MMAF (designed binder, mal-PEG4-VC-MMAF on the cysteine) MLPAPKNLVVSEVTEDSARLSWDDPWAFYESFLIQYQESEKVGEAIVLTVPGSERSYDLTGLKPGTEYTVSIYGVHNVYKDTNMRGLPLSAIFTTGGHHHHHHC	–	–	–	1.6 nM	1.19 nM and 1.05 nM
